Assay results: US8304565B2, “PEG-lipid conjugates for liposomes and drug delivery” (priority 2008, dated 2012)
Blank lines part the entries; values can stand above or below the molecule they belong to.

What was measured:
[1] = In vitro stability of selective linkers at low pH; format: physicochemical; conditions: 10 mM phosphate buffer (pH 2.1), approximately 0.05 g/mL, 37°, GPC with RI detector
Procedure: Three DAG-PEGs with equivalent PEG chains and fatty acids, but different linkages (shown in Table 5) were tested for stability at low pH, in the range of 1.4 to 2.1. Table 5 includes alternate names for each of the three DAG-PEGs tested.
The selected DAG-PEGs were mixed with 10 mM phosphate buffer (pH 2.1) at final concentrations approximately 0.05 g/mL and incubated at 37° . The sample solutions were tested on a GPC column with RI detector and the breakdown fragments were further confirmed by LC-MS/MS.
In FIG. 1, (1) is PEG (n=12)-3-acetyl-1,2-rac-dioleoylglucerol, (2) is PEG (n=12)-3-acetamido-dioleoylglycerol and (3) is PEG (n=12)-3-N-(mercaptomethyl)-Propionamido-1,2-rac-dioleoylglucerol.

[2] = mouse, in vivo, iv, 10 mg/kg
Procedure: Groups of three male mice (B6D2F1) were used for the studies. Pharmacokinetics (PK) were performed on heparinized mouse plasma samples obtained typically at 0 hr, 0.08 hr, 0.25 hr, 0.5 hr, 1 hr, 2 hr, 4 hr, 8 hr, 16 hr and 24 hr after the bolus IV injection or oral feeding for posaconazole and at 0 hr, 0.08 hr, 0.25 hr, 0.5 hr, 1 hr, 2 hr, 4 hr, 8 hr, 16 hr and 24 hr for itraconazole. Samples were analyzed using a HPLC-MS method. To determine the level of each drug, the drug was first isolated from plasma with a sample pre-treatment. Acetonitrile were used to remove proteins in samples. An isocratic HPLC-MS method was then used to separate the drugs from any potential interference. Drug levels were measured by MS detection with a multiple reaction monitoring (MRM) mode. PK data was analyzed using the WinNonlin program (ver. 5.2, Pharsight) compartmental models of analysis.
The drug was administered intravenously and the dosing strength was 10 mg/kg.

[3] = Spontaneous liposome formation of DAG-PEG lipids; format: physicochemical
Text: Herein, we describe biologically degradable linear PEG analogs carrying diacylglycerol lipid groups. These new molecules belong to a class referred to as diacylglycerol-polyethyleneglycols (DAG-PEGs). DAG-PEGs having certain properties form liposomes spontaneously upon mixing with an aqueous solution. Briefly, DAG-PEGs or lipid mixtures including DAG-PEGs must have packing parameters that allow liposome formation. Generally, Pa is preferably between about 0.84 and 0.88, and Pv is preferably between about 0.88 and 0.93. Also, the DAG-PEGs or lipid mixtures including DAG-PEGs must have a melting point below the temperature of liposome formation. If a DAG-PEG meets these conditions, it will form liposomes spontaneously (without external energy inputs). Spontaneous liposomes and DAG-PEGs are described in U.S. Pat. No. […], which is hereby incorporated by reference. The particular DAG-PEGs described in U.S. Pat. No. […] utilized a single oxy (alternatively called oxyl) linkage between the PEG and the glycerol backbone.
A number of new DAG-PEGs were synthesized and tested. Most of the combinations of PEG chains and fatty acids were chosen because it was known or expected that such DAG-PEGs with oxy linkages would have packing parameters and melting points favorable for the formation of liposomes.

[4] = test system: human red blood cells; experiment: Hemolysis of human red blood cells; format: cell-based; conditions: equivalent concentrations (20 mmol), absorbance at 413 nm
Procedure: In addition, hemolysis of human red blood cells was performed to provide a more quantitative cytotoxicity evaluation of the PEG-grafted lipids. Cell lysis caused by cytotoxic material leads to release of heme into solution, which was detected by absorbance at 413 nm and compared to control experiments performed in the absence of the synthetic material. Results in Table 6 for equivalent concentrations (20 mmol) of sodium lauryl sulfate (SLS) and mPEG-600 were shown for the comparison.

Molecule: PEG (n=12)-3-acetamido-dioleoylglycerol [PEG-12-N3-GDO]
stability at low pH [1]: relatively stable

Molecule: PEG (n=12)-3-N-(mercaptomethyl)-Propionamido-1,2-rac dioleoylglycerol [PEG-12-S2-GDO]
stability at low pH [1]: degraded quickly

AUC [2]: 164.1 µg·h/mL
Molecule: POPC

Molecule: PEG (n=12)-3-acetyl-1,2-rac-dioleoylglycerol [PEG-12-Ac2-GDO]
stability at low pH [1]: stable
Spontaneous Liposome at 20° C. ([3]; 20° C.): Yes
Spontaneous Liposome at 37° C. ([3]; 37° C.): Yes

Molecule: CCCCCCCCCCCCOS(=O)(=O)[O-].[Na+] [SLS, sodium lauryl sulfate]
% Hemolysis [4]: 80%
